{
  "source": "paper doi:10.1101/2020.09.30.318261",
  "about": "(bioRxiv, 2020)",
  "biological_target": "full-length SARS-CoV-2 spike protein, wildtype, surface expressed (SARS-CoV-2, UniProt P0DTC2)",
  "test": "flow cytometry on cells",
  "data": [
    {"binder": "human monoclonal antibody 47D11 (antibody, V domains shown) VH: QVQLQESGPGLVKPSETLSLTCSVSGGSISSHYWSWIRQPPGKGLEWIGYIYYSGSTNHNPSLKSRVTISVDTSKNQFSLKLSSVTAADTAVYYCARGVLLWFGEPIFEIWGQGTMVTVSS VL: EIVMTQSPATLSVSPGERATLSCRASQSVSSSLAWYQQKPGQAPRLLIYGASTRAPGIPARFSGSGSGTEFTLTISSLQSEDFAVYYCQQYNNWPLTFGGGTKVEI", "values": [
      {"measurement": "binding result", "result": "binds"}
    ]}
  ]
}
